From publication PMC6234845 (Biochemistry, 2018)

Legend:
[1] = biological target: Src13-GCN4-EGFP / Src13-GCN4-mCH; assay: PIE-FCCS
PIE-FCCS = biological target: the molecule itself; assay: PIE-FCCS

| Molecule | fc, fraction correlated [1] | fc (mean), fraction correlated (PIE-FCCS) | fc (median), fraction correlated (PIE-FCCS) |
| --- | --- | --- | --- |
| Src13-GCN4-EGFP / Src13-GCN4-mCH | 0.13 | – | – |
| wild type rod opsin-EGFP / rod opsin-mCherry (receptor, mouse, UniProt P15409 1-348, looked up) MNGTEGPNFYVPFSNVTGVVRSPFEQPQYYLAEPWQFSMLAAYMFLLIVLGFPINFLTLYVTVQHKKLRTPLNYILLNLAVADLFMVFGGFTTTLYTSLHGYFVFGPTGCNLEGFFATLGGEIALWSLVVLAIERYVVVCKPMSNFRFGENHAIMGVVFTWIMALACAAPPLVGWSRYIPEGMQCSCGIDYYTLKPEVNNESFVIYMFVVHFTIPMIVIFFCYGQLVFTVKEAAAQQQESATTQKAEKEVTRMVIIMVIFFLICWLPYASVAFYIFTHQGSNFGPIFMTLPAFFAKSSSIYNPVIYIMLNKQFRNCMLTTLCCGKNPLGDDDASATASKTETSQVAPA | – | 0.114 | 0.107 |
